Measured values: patent US6805863B2, “Methods of modulating immune coagulation” (Trillium Therapeutics Inc., priority 1997, dated 2004)
“And” between values parts separate entries of the source, which are not always exact repeats. Identical values can stand only once. Marks after values point to notes of the source that are not given here.

Legend:
DBA/2-mated CBA/J mice = assay: Fetal loss in DBA/2-mated CBA/J mice: role of asialoGM1+ NK cells, macrophages and cytokines; type: in vivo, mouse
Text: Inbred mice of strains CBA/J and DBA/2 were obtained from Iffa Credo. France C57B1/6J and DBA/2 mice were obtained from the Jackson Laboratories, Bar Harbor, Me. C57B1/6 mice with knockout of the interferon response element IRF-1 were generated as previously described (Duncan, G. S. et al., J. Exp. Med. 184:2043 (1996)) and bred in at the Ontario Cancer Institute, Toronto. CBA/J mice were maintained in the Paris colony under conventional open-top wire cage conditions with food and water ad lib and a 12 hour light-dark cycle. Mice in the Toronto colony were maintained in a barrier facility. Female CBA/J, C57B1/6 or C57B1/6 IRF−/− mice were mated by overnight cohabitation with a DBA/2J male, and the morning of sighting a vaginal plug was defined as day 0.5 of pregnancy.
Pregnant CBA/J mice were depleted of NK cells by injection of 1 ml rabbit IgG anti-asialoGM1 antibody (Immunocorp, Richmond, Va.) ip on day 6.5 of gestation; phosphate buffered saline (PBS) was used as a control as it has been previously shown to be equivalent to non-immune rabbit IgG (Clark, D. A., Crit. Rev. Immunol. 11:215 (1991)). Macrophage depletion was performed by ip injection of 100 mg/kg silicon dioxide twice a week for 4 weeks prior to mating, as described in Baek, H-S. and J-W. Yoon (J. Virol. 64:5708 (1990)). Affinity-purified rabbit IgG neutralizing antibody to mouse procoagulant (fg12-prothombinase) was prepared as previously described (Ding, J. W. et al., J. Exp. Med. (1997); Dackiw, A. P. B. et al., Arch. Surg. 131:1273 (1996)); the mice were given a ip injection of 200 μl of a 1/50 dilution of a 5.5 mg/ml preparation of anti-prothombinase or control rabbit antibody each day beginning on day 3.5 of gestation. Hormonal support of pregnancy sufficient to replace ovarian function was provided in some experiments by injecting 6.7 ng 17 β-estradiol+1 mg progesterone in 0.1 ml oil im daily beginning on day 4.5 of gestation (Michael, S. D. et al., Biol. Reprod. 12:400 (1975)). One hundred […] of rat monoclonal IgG2b anti-mouse granulocyte antibody RB6-8C5 (Pharmingen) (Stoppacciaro, A. et al., J. Exp. Med. 178:151 (1993)) or isotype control was injected ip on either day 6.5 or on day 8.5 of pregnancy. TNF-α (6 and R&D Systems) 1000 or 2000 units and/or murine recombinant γ-interferon (6 and R&D Systems) 1000 units was injected ip on day 7.5 of pregnancy. On day 13.5 of pregnancy, the mice were sacrificed and the number of resorbing and healthy embryos was counted. In some experiments, the uteri were snap frozen, 5 micron sections were cut, and the tissues were stained with rat monoclonal F4/80 antibody (Caltag, Tebu, France) to macrophages. Briefly, tissue sections were incubated with a 1/30 dilution of F4/80 in PBS for 30 minutes, and binding was detected using peroxidase-streptavidin with biotin-labelled anti-rat IgG2b second antibody (Secrotec) (Kachkache, M. et al., Biol. Reprod. 45:860 (1991)).
Four to ten mated mice per treatment group were used. The significance of differences in the pooled resorption rate was tested by c^2 of Fisher's Exact test where appropriate.

[1] = tested on: recalcified platelet-poor normal human plasma; assay: One-stage clotting assay (procoagulant activity, PCA); type: biochemical
Protocol: This assay for fg12 prothrombinase was used to directly measure procoagulant activity. High 5 cells infected with recombinant virus expressing the mfg12 fusion protein were subjected to cycles of freeze thawing. They were then assayed for their ability to accelerate the spontaneous clotting time of recalcified platelet-poor normal human plasma as previously described (Levy & Edgington, 1980). Results were quantitated by comparison with serial dilutions of standard rabbit brain thromboplastin. Activities from cells infected with the recombinant virus were compared with those uninfected and wild-type virus infected, and with the purified protein alone. Proteins involved in the coagulation pathway require a phospholipid bilayer for functional activity; therefore purified protein was reconstituted into […] to determine their PCA activity. Additional PCA assays were performed with human plasma deficient in coagulation factors II, V, VII, VIII, X, and XII to determine the nature (factor dependence) of the expressed PCA.

125I-prothrombin = assay: Prothrombin cleavage assay; type: biochemical; conditions: FIG. 22
Protocol: To determine if the expressed fusion protein acts as a direct prothrombinase, the prothrombin cleavage assay was performed as previously described (Schwartz et al., 1982). 125I-prothrombin was incubated with High 5 cells, both infected or uninfected with the recombinant virus. Purified mfg12 fusion protein was also studied to determine its ability to cleave prothrombin. Human Factor Xa in the presence of Russell's viper venom (RVV) was used as a positive control. Samples were run on 10% SDS-PAGE and analyzed by autoradiography for 125I-prothrombin and their cleavage products.

[2] = Expt 1, anti-asialoGM1 pretreated (NK depleted) mice, 1000 u day 7.5
[3] = Expt 1, anti-asialoGM1 pretreated (NK depleted) mice, 2000 u day 7.5
[4] = Expt 1, day 6.5 PBS, 1000 u ip day 7.5, day 13.5 assay
[5] = Expt 1, day 6.5 PBS, 2000 u ip day 7.5, day 13.5 assay
[6] = Expt 2, anti-asialoGM1 pretreated (NK depleted) mice, 1000 u IFN-γ, TNF-α 1000 u or 2000 u pooled
[7] = Expt 2, day 6.5 PBS, 1000 u IFN-γ, TNF-α 1000 u or 2000 u pooled, day 7.5
[8] = Table 9, 20 ng added to H5 cells + RV
[9] = Table 9, 100 ng added to H5 cells + RV
[10] = Table 9, 3 μg reconstituted into H5 cells
[11] = Table 9, purified protein 3 μg alone

## TNF-α
DBA/2-mated CBA/J mice; [2]
  % fetal losses: 16%^e
  resorptions/total: 12/63
DBA/2-mated CBA/J mice; [3]
  % fetal losses: 22%^e
  resorptions/total: 12/55
DBA/2-mated CBA/J mice; [4]
  % fetal losses: 72%^b
  resorptions/total: 43/60
DBA/2-mated CBA/J mice; [5]
  % fetal losses: 89%^c
  resorptions/total: 57/64

B1: IFN-γ: murine recombinant γ-interferon (protein, UniProt P01580 23-155, looked up)
Interferon gamma: HGTVIESLESLNNYFNSSGIDVEEKSLFLDIWRNWQKDGDMKILQSQIISFYLRLFEVLKDNQAISNNISVIESHLITTFFSNSKAKKDAFMSIAKFEVNNPQVQRQAFNELIRVVHQLLPESSLRKRKRSRC
DBA/2-mated CBA/J mice; [6]
  % fetal losses: 12%^e
  resorptions/total: 12/98
DBA/2-mated CBA/J mice; [7]
  % fetal losses: 85%^g
  resorptions/total: 79/93

B2: Purified protein: purified murine fg12 fusion protein with six histidine residues and an enterokinase site at the N-terminus, baculovirus expressed (protein)
chain: VEEHNLTEGLEDASAQAACPARLEGSGRCEGSQCPFQLTLPTLTIQLPRQLGSMEEVLKEVRTLKEAVDSLKKSCQDCKLQADDHRDPGGNGGNGAETAEDSRVQELESQVNKLSSELKNAKDQIQGLQGRLETLHLVNMNNIENYVDNKVANLTVVVNSLDGKCSKCPSQEHMQSQPVQHLIYKDCSDHYVLGRRSSGAYRVTPDHRNSSFEVYCDMETMGGGWTVLQARLDGSTNFTREWKDYKAGFGNLEREFWLGNDKIHLLTKSKEMILRIDLEDFNGLTLYALYDQFYVANEFLKYRLHIGNYNGTAGDALRFSRHYNHDLRFFTTPDRDNDRYPSGNCGLYYSSGWWFDSCLSANLNGKYYHQKYKGVRNGIFWGTWPGINQAQPGGYKSSFKQAKMMIRPKNFKP
modifications: left off: small tags and cut ends
notes: purified murine fg12 fusion protein with six histidine residues and an enterokinase site at the N-terminus, baculovirus expressed
[1]; Table 7, purified protein 3 μg, uninfected High 5 cells <1
  PCA: <1 Miliunits/2 × 10^6 cells
[1]; Table 7, purified protein 3 μg, uninfected High 5 cells >240
  PCA Time: 220 s
[1]; [8]
  PCA Milliunits: 1254 mU/2 × 10^6 cells
  PCA Time: 57 s
[1]; [9]
  PCA Milliunits: 1543 mU/2 × 10^6 cells
  PCA Time: 54 s
[1]; Table 9, 3 μg added to H5 cells + RV (printed for two lines)
  PCA Time: 50 s and 34 s
[1]; [10]
  PCA Milliunits: 3634 mU/2 × 10^6 cells
  PCA Time: 42 s
[1]; [11]
  PCA Milliunits: <1 mU/2 × 10^6 cells
  PCA Time: 220 s
[1]; preliminary results
  PCA after reconstitution of purified protein into insect cells: partial PCA activity recovery
[1]; purified soluble protein alone
  PCA detected: no activity
[1]; soluble mfg12 protein added to cell lysate
  prevention of PCA expression by cells infected with recombinant virus: incapable of preventing the clotting induced by the cell lysate
125I-prothrombin
  cleavage of 125I-prothrombin (SDS-PAGE autoradiography): no prothrombin cleavage
